Test results: patent publication US20060172377, “Site-specific serine recombinases and methods of their use” (published 2006)

Assays:
Conditions in all cases: chain copies: 4
Bxb1 recombinase = molecular target: T1, Bxb1 recombinase (Mycobacterium smegmatis phage Bxb1); experiment: cell_activity; partner of N5, NIH3T3; chromosomal integration also seen (Tables 1-2)
T1 chain: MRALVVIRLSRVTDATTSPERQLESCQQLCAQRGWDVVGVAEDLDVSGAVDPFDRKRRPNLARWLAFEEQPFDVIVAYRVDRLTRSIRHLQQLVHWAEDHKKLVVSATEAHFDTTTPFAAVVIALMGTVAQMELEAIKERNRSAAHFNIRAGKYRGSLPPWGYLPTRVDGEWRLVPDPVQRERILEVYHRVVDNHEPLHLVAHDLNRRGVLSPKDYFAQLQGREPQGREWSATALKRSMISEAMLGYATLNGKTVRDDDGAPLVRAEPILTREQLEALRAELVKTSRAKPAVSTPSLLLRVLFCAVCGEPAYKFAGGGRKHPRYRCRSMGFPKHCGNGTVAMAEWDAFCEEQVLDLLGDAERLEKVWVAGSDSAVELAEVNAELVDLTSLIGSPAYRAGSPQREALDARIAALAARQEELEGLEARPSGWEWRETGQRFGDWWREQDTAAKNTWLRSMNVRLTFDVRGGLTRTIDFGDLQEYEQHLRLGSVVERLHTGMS
Protocol: Cells were maintained at 37° C. and 5% CO₂ in DMEM supplemented with 10% fetal bovine serum and 1% penicillin/streptomycin (obtained from Invitrogen, Carlsbad, Calif.) or in other media as indicated. On the day of transfection, cells were plated at different densities depending on the cell type used. The cells were transfected with intramolecular recombination assay plasmid alone or along with varying amounts of recombinase expression plasmid DNA using Lipofectamine 2000™ according to the manufacturers instructions (Invitrogen, Carlsbad, Calif.). Constitutively expressed Renilla luciferase reporter plasmid (pRL-CMV from Promega, Madison, Wis.) was co-transfected (2 ng/well) and used as an internal control to normalize the data. Twenty-four or forty-eight hours after transfection (depending on the cell line), media was discarded and cells were lysed with passive lysis buffer (Promega, Madison, Wis.). Extracts were then assayed using Dual Luciferase Assay kit (Promega, Madison, Wis.) on a plate reader equipped with injectors (Dynex Technologies, Chantilly, Va.). The data shown are the ratios of luciferase (Luc) and Renilla luciferase (RLuc) activities, unless noted otherwise. Similar results were observed when Luc activities (relative light units) were compared (data not shown). […]

A118 recombinase [1] = molecular target: T2, A118 recombinase (Listeria monocytogenes phage A118); experiment: cell_activity; partner of N7, tobacco BY2 protoplasts; chromosomal integration also seen (Tables 1-2)
T2 chain: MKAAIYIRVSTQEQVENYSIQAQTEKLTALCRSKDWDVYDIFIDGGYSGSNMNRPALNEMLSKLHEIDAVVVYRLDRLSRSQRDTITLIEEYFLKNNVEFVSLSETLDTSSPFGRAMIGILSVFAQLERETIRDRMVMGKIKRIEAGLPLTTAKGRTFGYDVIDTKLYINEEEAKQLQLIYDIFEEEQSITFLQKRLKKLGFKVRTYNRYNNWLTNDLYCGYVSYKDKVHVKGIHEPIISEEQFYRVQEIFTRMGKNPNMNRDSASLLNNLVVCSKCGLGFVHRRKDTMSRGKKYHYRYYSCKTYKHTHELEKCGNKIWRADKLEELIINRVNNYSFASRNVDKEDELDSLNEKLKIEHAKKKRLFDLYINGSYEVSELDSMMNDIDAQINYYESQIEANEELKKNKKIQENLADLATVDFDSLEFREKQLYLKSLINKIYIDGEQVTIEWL
Protocol: (§1) Cell suspension cultures of Nicotiana tobacum BY2 were maintained in MS medium in the dark and subcultured weekly (Nagata, T., T. Nemoto, and S. Hasezawa. 1992. Tobacco BY-2 cell line as the Hela cell in the cell biology of higher plants. Intl. Rev. Cytol., 132:1-30). Protoplasts prepared from 3 day-old cultures were resuspended in 0.4 M mannitol and distributed into 35 mm petri dishes in 1 mL aliquots (˜5×10⁵ cells). Protoplasts were mixed with plasmid DNA and electroporated at 0.56 K Volts for 80μ seconds using a square wave electroporation system with Petripulser electrode (BTX, San Diego, Calif., USA). The cells were transfected with 10 μg for the intramolecular recombination test plasmid and 0 or 10 μg for the recombinase expression plasmid. Following the electroporation, protoplasts were diluted with 1 mL of 2× protoplast culture medium (Watanabe, Y., T. Meshi, and Y. Okada. 1987. Infection of tobacco protoplasts with in vitro transcribed tobacco mosaic virus RNA using an improved electroporation method. Virology, 192:264-272), aliquotted as two 1 mL cultures, and incubated at 27° C. for 17 h. Protoplasts were lysed by freeze thawing and addition of 250 μL 5× passive lysis buffer (Promega, Madison, Wis., USA). Twenty μL of cell extract was assayed for luciferase activity using Dual Luciferase Assay kit on a plate reader equipped with injectors. […]

A118 recombinase [2] = molecular target: T2, A118 recombinase; experiment: cell_activity; attP x attB recombination with N8, tobacco BY2 protoplasts; also active in mammalian cells
Protocol: as §1

B1: Bxb1 attB (dsDNA)
DNA 1: GGCCGGCTTGTCGACGACGGCGGTCTCCGTCGTCAGGATCATCCGG
DNA 2: CCGGATGATCCTGACGACGGAGACCGCCGTCGTCGACAAGCCGGCC
Question: For B1, which activity (Bxb1 recombinase) is on record?
Answer: Its activity is 66 fold induction.

B2: A118 attB (dsDNA)
DNA 1: TTGAGCTAATTAAAACCAGCTGTAACTTTTTCGGATCAAGCTATGAAGGACGCAAAGAGGGAACTAAACACTTAATTGGTGTTACCCATAAGCCAC
DNA 2: GTGGCTTATGGGTAACACCAATTAAGTGTTTAGTTCCCTCTTTGCGTCCTTCATAGCTTGATCCGAAAAAGTTACAGCTGGTTTTAATTAGCTCAA
Question: B2 was tested. Which activity (A118 recombinase [1]) did it give?
Answer: Its activity is 364 fold induction.

B3: A118 attP (dsDNA)
DNA 1: ACGCTAGTAGCTTGTTTATTTAGATTGTTTAGTTCCTCGTTTTCTCTCGTTGGAAGAAGAAGAAACGAGAAACTAAAATTATAAATAAAAAGTAACCTA
DNA 2: TAGGTTACTTTTTATTTATAATTTTAGTTTCTCGTTTCTTCTTCTTCCAACGAGAGAAAACGAGGAACTAAACAATCTAAATAAACAAGCTACTAGCGT
Question: For B3, which activity (A118 recombinase [2]) is on record?
Answer: The activity was 364 fold induction.
